{"source": "paper PMC10987364", "key": {"[1]": {"biological_target": "L-rhamnose isomerase (L-RIM) (Chloroflexus sp. origin (hot spring metagenome))", "assay": "native gel or EMSA; 10% Native PAGE of purified L-RIM, Coomassie stained; native mass against a marker"}, "[2]": {"biological_target": "L-rhamnose isomerase (L-RIM) (Chloroflexus sp. origin (hot spring metagenome))", "assay": "SEC; Superdex 200 increase 10/300 GL, 50 mM Tris-Cl pH 7.0, 150 mM NaCl, 0.5 mL/min; calibrated with ovalbumin, conalbumin, aldolase and ferritin"}}, "data": [{"substance": "L-rhamnose isomerase (L-RIM) (enzyme)", "values": [{"measurement": "stoichiometry N", "setting": "[1]", "value": 4}, {"measurement": "stoichiometry N", "setting": "[2]", "value": 4}]}]}
